The assay in a line: Efficacy in spontaneously obese cynomolgus monkeys, sc every three days for 49 days. The format is in vivo. Conditions: obese monkeys, 1, 3 and 10 nmol/kg sc every three days. The protocol: FIGS. 10A-10B show In vivo efficacy in obese monkey. Naïve male spontaneously obese cynomolgus monkeys were injected every three days subcutaneously with designated protein MLC093 with different concentrations for 49 days.
Naïve male spontaneously obese cynomolgus monkeys with BMI>40 kg/m^2 were injected every three days subcutaneously with designated protein MLC093 for 49 days. Body weight was measured once a week and food intake was measured daily for each monkey. Six animals were used for vehicle or MLC093 1 nmol/kg treamment group and seven animals were used for MLC093 3 nmol/kg or MLC093 10 nmol/kg treamment group. Day 1 and Day 49 are first day and last day of molecule dosage. % BW loss=100*(BW on Day n-BW on Day 1)/(BW on Day 1). Cumulative food intake on Day n represents sum of food intake from Day 1 to Day n. Data are indicated as mean values and standard error (SEM) or pooled values.

B1: MLC093: fusion polypeptide SEQ ID NO: 381 conjugated with Moiety B at 33C of Linker (conjugate)
chain: HGEGTFTSDVSSYLEEQAAKEFIAWLVRGGGGAQPGAQPGAQPGAQPGAQPGAQPGAQPGAQPCQEPGAQPGQEPGAQPGQEPGAQPGQEPGAQPGQEPGAQPGQEPGAQPARQGDHCPLGPGRCCRLHTVRASLEDLGWADWVLSPREVQVTMCIGACPSQFRAANLHAQIKTSLHRLKPDTVPAPCCVPASYNPMVLIQKTDTGVSLQTYDDLLAKDCHCI
modifications: Moiety B conjugated at linker Cys33
B1: the body weight loss result is “good efficacy on body weight loss and food intake suppression”; the food intake suppression entry was “good efficacy on body weight loss and food intake suppression”.

These data come from patent US11453711B2, “Fusion proteins of GLP-1 and GDF15 and conjugates thereof” (BEIJING QL BIOPHARMACEUTICAL CO., LTD., priority 2019, dated 2022).
